Numbering of substitutions follows the chain as printed. In names and notes the source's numbering stands. Some results are limits rather than exact numbers.

For assay [1], the target named is Fc receptor CD64, Avi-tagged (UniProt P12314). Put plainly: BLI, Avi-tagged receptor on streptavidin sensor; IgG complexed with TNFα.
The target in assay [2] is T1, human Fibroblast Activation Protein (FAP), soluble antigen (human, UniProt Q12884 26-760, biotinylated when immobilized on streptavidin sensors).
T1 construct: also called hFAP; biotinylated FAP
As to the kind of experiment: BLI per 6.1.3, human FAP.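 Note: biolayer interferometry with immobilized antigen on sensors, antibody association up to 240 s then dissociation up to 420 s, reference-subtracted, global 1:1 fit with unlinked Rmax.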

Assay [3] addresses T1, human Fibroblast Activation Protein …. As to the kind of experiment: BLI; Table 11, antibody variants (Fab/scFv).
Assay [4] has as its target T2, human interleukin-2 (IL-2), wild type (human, UniProt P60568 21-153, biotinylated when immobilized).
T2 construct: also called biotinylated IL-2; IL2 WT
Put plainly: BLI; Table 11 (N.B. = no detectable binding). (In BLI a coated tip is dipped into the sample, and binding shifts an interference pattern.)

For assay [5], the target named is T1, human Fibroblast Activation Protein …. As to the kind of experiment: BLI (Gator), biotinylated FAP on streptavidin sensor.
The target in assay [6] is T3, human FAP expressed on cells (HEK 293T-hFAP-E5; ExpiCHO-hFAP) (human, UniProt Q12884 1-760).
T3 construct: hFAP expression vector Sino Biologics HG10464-UT; also called hFAP expressing cells
Put plainly: flow cytometry, 1 µg/mL antibody.

Assay [7] concerns the target T1, human Fibroblast Activation Protein …. Put plainly: not stated (legend of FIG. 13A).
Assay [8] has as its target human FAP expressed on cells (HEK 293T-hFAP-E5; ExpiCHO-hFAP) (human) (UniProt Q12884). As to the kind of experiment: cell-based or functional assay.
For assay [9], the target named is T1, human Fibroblast Activation Protein …. Put plainly: BLI per 6.1.3.
The target of assay [10] is T3, human FAP expressed on cells (HEK …). As to the kind of experiment: cell-based or functional assay.
Assay [11] has as its target T4, IL-2hex, mutant human IL-2 (deltaA1/T3A/F42A/Y45A/L72G/C125S) (human, UniProt P60568 22-153).
T4 chain: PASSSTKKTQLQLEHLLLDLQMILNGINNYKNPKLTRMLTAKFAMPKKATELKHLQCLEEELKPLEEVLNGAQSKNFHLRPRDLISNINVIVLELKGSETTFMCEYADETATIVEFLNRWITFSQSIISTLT
Put plainly: cell-based or functional assay.

Assay [12] addresses T1, human Fibroblast Activation Protein …. Put plainly: Affinity (nM), Table 13B.
Assay [13] has as its target T4, IL-2hex, mutant human IL-2 …. As to the kind of experiment: Affinity (nM), Table 13B.
The target in assay [14] is T1, human Fibroblast Activation Protein …. As to the kind of experiment: not stated (legend of FIG. 18B).
Assay [15] has as its target T4, IL-2hex, mutant human IL-2 …. Put plainly: BLI per 6.1.3; column head IL-2 KD.
Assay [16] concerns the target T1, human Fibroblast Activation Protein …. Put plainly: BLI, small-scale crude lysate.

T2 sequence (P60568 21-153): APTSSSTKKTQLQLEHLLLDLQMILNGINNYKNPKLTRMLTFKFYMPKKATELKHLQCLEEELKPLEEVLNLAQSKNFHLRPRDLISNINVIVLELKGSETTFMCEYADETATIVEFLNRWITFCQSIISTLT
Sequence of Fc receptor CD64, Avi-tagged (P12314 16-288 limits assumed): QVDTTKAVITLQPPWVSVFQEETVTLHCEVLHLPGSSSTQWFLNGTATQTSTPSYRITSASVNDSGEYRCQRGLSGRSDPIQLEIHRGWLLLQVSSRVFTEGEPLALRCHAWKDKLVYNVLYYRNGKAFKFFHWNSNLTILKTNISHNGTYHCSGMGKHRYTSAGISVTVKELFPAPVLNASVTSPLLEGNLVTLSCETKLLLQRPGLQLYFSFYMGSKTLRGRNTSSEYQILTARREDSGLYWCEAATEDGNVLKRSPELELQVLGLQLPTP

The molecule “Certolizumab IgG, wild-type IgG1 Fc (antibody)” showed a CD64 Binding (% of wild-type Certolizumab-IgG1) in assay [1] of 100%.

B1: anti-FAP antibody 872-5 (antibody, V domains shown)
VH: EVQLVESGGGLVQPGGSLRLSCAASGFTFRGYIMSWVRQAPGKGLEWVSWISPEGSRTGYADSVKGRFTISRDNSKNTLYLQMNSLRAEDTAVYYCARLQYGTWFDYWGQGTLVTVSS
VL: DIQMTQSPSSLSASVGDRVTITCRASQSISSYLNWYQQKPGKAPKLLIYAASSLQSGVPSRFSGSGSGTDFTLTISSLQPEDFATYYCQQATLLLPTFGQGTKVEIKR
notes: monovalent Fab-Fc (knob-in-hole) for KD per 6.1.3; also called IgG 5; FAP5
B1: in [2], the Kd (usually a measure of binding affinity in units of concentration) came out at 7.3 nM; the dissociation rate constant (koff) – broadly, the first-order rate constant of dissociation – was found to be 0.00201 s⁻¹; the kon (as a rule, the second-order rate constant of association) worked out at 277000 M⁻¹ s⁻¹. Further, the dissociation constant (Kd) in [3] stood at 7 nM. Besides, the binding result in assay [4] is given as “no binding”. For the same molecule, in assay [5], binding was put at a Kd of 6.6 nM, the off-rate constant (koff) amounted to 0.0028 s⁻¹ and the kon was 420000 M⁻¹ s⁻¹.

B2: two-in-one antibody D049 (bispecific antibody, V domains shown)
VH: B1 VH with R30F, G31S, I33W, W50T, E54Y, G55D, R57S, G59A, Q100L
VL: B1 VL with S28I, I29V, S30R, S31T, A91G, T92A, L93Q, L95Q
Take B2: the binding result in [6] is given as “binds”.

B3: antibody D003 (antibody, V domains shown)
VH: EVQLVESGGGLVQPGGSLRLSCAASGFTFYTYIMSWVRQAPGKGLEWVSSIGPSYGDTIYADSVKGRFTISRDNSKNTLYLQMNSLRAEDTAVYYCARTISYSQYAYGYSFDYWGQGTLVTVSS
VL: B1 VL with A91T, T92R, L93S, L94Y
For B3, the binding result in [6] is given as “binds”.

B4: scFv5, scFv derived from antibody 872-5 (scFv, V domains shown)
VH: B1 VH
VL: B1 VL
notes: Single chain; also called scFv872-5
Turning to B4, in assay [7], the Kd is roughly 5 nM.

B5: immunoconjugate of configuration 3 with IL-2 polypeptide, D002 Fab and 872-70 scFv (Fc fusion, part only; not given: CH1, Fc subunits, linkers, part only)
chain, part: EVQLVESGGGLVQPGGSLRLSCAASGFTFSRYSMSWVRQAPGKGLEWVSYITSTDGTTDYADSVKGRFTISRDNSKNTLYLQMNSLRAEDTAVYYCARSQYGRYYSPDYYFDYWGQGTLVTVSSDIQMTQSPSSLSASVGDRVTITCRASQSISSYLNWYQQKPGKAPKLLIYAASSLQSGVPSRFSGSGSGTDFTLTISSLQPEDFATYYCQQSRTSPYTFGQGTKVEIKRTVAPASSSTKKTQLQLEHLLLDLQMILNGINNYKNPKLTRMLTAKFAMPKKATELKHLQCLEEELKPLEEVLNGAQSKNFHLRPRDLISNINVIVLELKGSETTFMCEYADETATIVEFLNRWITFSQSIISTLT
heavy, part: EVQLVESGGGLVQPGGSLRLSCAASGFTFSRYSMSWVRQAPGKGLEWVSDISSYSTTYYADSVKGRFTISRDNSKNTLYLQMNSLRAEDTAVYYCARSQYGRYYSPDYYFDYWGQGTLVTVSS
light, part: DIQMTQSPSSLSASVGDRVTITCRASQSIGNSLNWYQQKPGKAPKLLIYAASSLQSGVPSRFSGSGSGTDFTLTISSLQPEDFATYYCQQGRRSPFTFGQGTKVEIKRTVA
Turning to B5, the enhancement of EC50, HEK-Blue IL-2 reporter, with FAP-expressing cells in [8] was less than 200 fold.

B6: immunoconjugate of configuration 3 with IL-2 polypeptide, D002 Fab and 872-5 scFv (Fc fusion, part only; not given: CH1, Fc subunits, linkers, part only)
chain, part: EVQLVESGGGLVQPGGSLRLSCAASGFTFRGYIMSWVRQAPGKGLEWVSWISPEGSRTGYADSVKGRFTISRDNSKNTLYLQMNSLRAEDTAVYYCARLQYGTWFDYWGQGTLVTVSSDIQMTQSPSSLSASVGDRVTITCRASQSISSYLNWYQQKPGKAPKLLIYAASSLQSGVPSRFSGSGSGTDFTLTISSLQPEDFATYYCQQATLLLPTFGQGTKVEIKRTVAPASSSTKKTQLQLEHLLLDLQMILNGINNYKNPKLTRMLTAKFAMPKKATELKHLQCLEEELKPLEEVLNGAQSKNFHLRPRDLISNINVIVLELKGSETTFMCEYADETATIVEFLNRWITFSQSIISTLT
heavy, part: B5 heavy, part
light, part: B5 light, part
With B6, the enhancement of EC50, HEK-Blue IL-2 reporter, with FAP-expressing cells in assay [8] is less than 200 fold.

B7: D029 HV2LV3 (bispecific antibody, V domains shown)
VH: EVQLVESGGGLVQPGGSLRLSCAASGFTFTWFFMSWVRQAPGKGLEWVSWIGPSGLYTDYADSVKGRFTISRDNSKNTLYLQMNSLRAEDTAVYYCARSQYGRYYSPDYYFDYWGQGTLVTVSS
VL: DIQMTQSPSSLSASVGDRVTITCRASGALGFYLNWYQQKPGKAPKLLIYAASSLSSGVPSRFSGSGSGTDFTLTISSLQPEDFATYYCQQGRTPPFTFGQGTKVEIKR
notes: also called Rev1-Q27G:L96F/S55L:S32F; two-in-one antibody within FB-675
As for B7, the Kd is 3.66 nM in [9]; 3.7 nM in assay [12]; 217 nM in [13]; roughly 3.66 nM in assay [14]; 217 nM in assay [15]. In [10], the “EC50 of HEK-Blue IL2 assay (pM) with HEK 293T-hFAP-E5; variant as masking moiety of a configuration 3 immunoconjugate” value amounted to 31 pM. Moreover, the “EC50 of HEK-Blue IL2 assay (pM) with HEK 293T; variant as masking moiety of a configuration 3 immunoconjugate” value in assay [11] amounted to 5300 pM.

B8: anti-FAP antibody 872-59 (antibody, V domains shown)
VH: B3 VH with Y30T, T31S, I33A, G52Y, P53S, S54W, D57T, I59S
VL: B1 VL with T92F, L93T, L94S, L95P, P96R
notes: also called IgG 59; FAP59
In turn, B8 yielded a dissociation constant Kd in assay [3] of 16 nM. Further, the binding result in assay [4] is “no binding”. In assay [5], this molecule returned a Kd of 15.5 nM, a koff of 0.0056 s⁻¹ and an on-rate constant (kon) of 360000 M⁻¹ s⁻¹.

B9: anti-FAP antibody 872-70 (antibody, V domains shown)
VH: EVQLVESGGGLVQPGGSLRLSCAASGFTFSRYSMSWVRQAPGKGLEWVSYITSTDGTTDYADSVKGRFTISRDNSKNTLYLQMNSLRAEDTAVYYCARSQYGRYYSPDYYFDYWGQGTLVTVSS
VL: B1 VL with A91S, T92R, L93T, L94S, L95P, P96Y
notes: also called IgG 70; FAP70
With B9, the Kd in assay [3] is less than 1 nM. For the same molecule, in [4], the binding result is listed as “no binding”. In assay [5], this molecule returned an equilibrium dissociation constant (Kd) of less than 1 nM and a kon of 110000 M⁻¹ s⁻¹.

B10: scFv70, scFv derived from antibody 872-70 (scFv, V domains shown)
VH: B9 VH
VL: B1 VL with A91S, T92R, L93T, L94S, L95P, P96Y
notes: Single chain; also called scFv872-70
In [7], B10 showed an equilibrium dissociation constant (Kd) of roughly 1 nM.

B11: D029VH T30R:S55L/LV2 (bispecific antibody, V domains shown)
VH: B7 VH with T30R, F32S
VL: B7 VL with P94Y
notes: also called Rev1:Q27G:P94Y:L96F/S55L:T30R
Molecule B11 came in with a dissociation constant Kd in [16] of roughly 100 nM.

B12: D029-HV1LV2 (bispecific antibody, V domains shown)
VH: B7 VH with F32S
VL: B7 VL with P94Y
notes: also called Rev1:Q27G:P94Y:L96F/S55L; D029HVILV2 (so in the source)
As for B12, the dissociation constant Kd in assay [16] was roughly 100 nM.

B13: D029 T30R:S55L/LV1 (bispecific antibody, V domains shown)
VH: B7 VH with T30R, F32S
VL: B7 VL with G27Q, F96L
notes: also called Rev1/S55L:T30R
The molecule B13 yielded an equilibrium dissociation constant (Kd) in assay [16] of roughly 100 nM.

B14: D029VH T30R:S55L/LV4 (bispecific antibody, V domains shown)
VH: B7 VH with T30R, F32S
VL: B7 VL with P94Y, F96L
notes: also called Rev1:Q27G:P94Y/S55L:T30R
B14 registered a Kd in assay [16] of roughly 100 nM.

B15: D029 LV4 (Rev1:Q27G:P94Y) (bispecific antibody, V domains shown)
VH: B7 VH with F32S, L56S
VL: B7 VL with P94Y, F96L
With B15, in assay [16], the Kd was roughly 100 nM.

B16: D029-HV1LV4 (bispecific antibody, V domains shown)
VH: B7 VH with F32S
VL: B7 VL with P94Y, F96L
notes: also called Rev1:Q27G:P94Y/S55L; D029HVILV4 (so in the source)
The molecule B16 returned a Kd in assay [16] of roughly 100 nM.

B17: D029 VH-S55L:T30R (bispecific antibody, V domains shown)
VH: B7 VH with T30R, F32S
VL: B7 VL with G27Q, A28D, L29G, F31N, A50G, S53T, S55Y, F96L
As for B17, the dissociation constant (Kd) in assay [16] is roughly 100 nM.
